Results taken from patent publication US20030143191A1, “Chemokine beta-1 fusion proteins” (priority 2001, published 2003).

Legend:
[1] = system: human monocytes; test: Cytokine release from human monocytes (ELISA of culture supernatants); format: cell-based; conditions: human monocytes (1×10^6), 1 day incubation
Protocol: To evaluate the in vitro activity of Ckb1(G-28-N93) and Ckb1(G-28-N93) fused to human serum albumin, proteins produced by these constructs were incubated with human monocytes (1×10^6) for 1 day. Culture supernatants were collected and analyzed by ELISA for cytokine content.

[2] = system: Jaks-STATS signal transduction pathway; test: Jurkat:GAS-SEAP reporter assay for T-cell activity; format: cell-based; conditions: Jurkat:GAS-SEAP cells; 100 Unit/ml; positive control wells; 48 hrs
Protocol: The following protocol is used to assess T-cell activity by identifying factors, and determining whether a fusion protein (e.g. albumin fusion protein) of the invention proliferates and/or differentiates T-cells. T-cell activity is assessed using the GAS/SEAP/Neo construct produced in Example 29. Thus, factors that increase SEAP activity indicate the ability to activate the Jaks-STATS signal transduction pathway. The T-cell used in this assay is Jurkat T-cells (ATCC Accession No. TIB-152), although Molt-3 cells (ATCC Accession No. CRL-1552) and Molt-4 cells (ATCC Accession No. CRL-1582) cells can also be used.
Jurkat T-cells are lymphoblastic CD4^+ Th1 helper cells. In order to generate stable cell lines, approximately 2 million Jurkat cells are transfected with the GAS-SEAP/neo vector using DMRIE-C (Life Technologies)(transfection procedure described below). The transfected cells are seeded to a density of approximately 20,000 cells per well and transfectants resistant to 1 mg/ml genticin selected. Resistant colonies are expanded and then tested for their response to increasing concentrations of interferon gamma.
Specifically, the following protocol will yield sufficient cells for 75 wells containing 200 ul of cells. Thus, it is either scaled up, or performed in multiple to generate sufficient cells for multiple 96 well plates. […]

[3] = system: Jaks-STATS signal transduction pathway; test: GAS-SEAP/U937 reporter assay for myeloid activity; format: cell-based; conditions: GAS-SEAP/U937 cells; 100 Unit/ml; positive control wells; 48 to 72 hr
Protocol: The following protocol is used to assess myeloid activity of a fusion protein (e.g. albumin fusion protein) of the present invention by determining whether the fusion protein proliferates and/or differentiates myeloid cells. Myeloid cell activity is assessed using the GAS/SEAP/Neo construct produced in Example 29. Thus, factors that increase SEAP activity indicate the ability to activate the Jaks-STATS signal transduction pathway. The myeloid cell used in this assay is U937, a pre-monocyte cell line, although TF-1, HL60, or KG1 can be used.
To transiently transfect U937 cells with the GAS/SEAP/Neo construct produced in Example 29, a DEAE-Dextran method (Kharbanda et. al., 1994, Cell Growth & Differentiation, 5:259-265) is used. First, harvest 2×10^7 U937 cells and wash with PBS. The U937 cells are usually grown in RPMI 1640 medium containing 10% heat-inactivated fetal bovine serum (FBS) supplemented with 100 units/ml penicillin and […] streptomycin.
Next, suspend the cells in 1 ml of 20 mM Tris-HCl (pH 7.4) buffer containing 0.5 mg/ml DEAE-Dextran, 8 ug GAS-SEAP2 plasmid DNA, 140 mM NaCl, 5 mM KCl, 375 uM Na2HPO4.7H2O, 1 mM MgCl2, and 675 uM CaCl2. Incubate at 37 degrees C. for 45 min.
Wash the cells with RPMI 1640 medium containing 10% FBS and then resuspend in 10 ml complete medium and incubate at 37 degree C. for 36 hr. […]

[4] = system: monocytes; conditions: cited from earlier work
[5] = molecular target: T1, CCR1 (Homo sapiens, UniProt P32246); conditions: Detheux et al., J. Exp. Med. 192:1501-1508 (2000); cited from earlier work
T1 sequence (P32246 1-355): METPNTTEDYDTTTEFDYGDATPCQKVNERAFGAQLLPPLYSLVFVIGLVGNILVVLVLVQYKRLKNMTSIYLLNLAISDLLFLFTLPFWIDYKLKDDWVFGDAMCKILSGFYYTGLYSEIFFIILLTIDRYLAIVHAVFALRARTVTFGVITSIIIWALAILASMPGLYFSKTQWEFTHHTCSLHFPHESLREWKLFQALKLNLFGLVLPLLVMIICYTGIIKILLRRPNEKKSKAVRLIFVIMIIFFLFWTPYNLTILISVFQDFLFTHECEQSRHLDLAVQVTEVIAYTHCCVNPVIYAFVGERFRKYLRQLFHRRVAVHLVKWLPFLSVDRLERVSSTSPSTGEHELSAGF

[6] = molecular target: CCR5 (Homo sapiens, UniProt P51681); conditions: Detheux et al., J. Exp. Med. 192:1501-1508 (2000); cited from earlier work
[7] = molecular target: T2, CCR3 (Homo sapiens, UniProt P51677); conditions: Detheux et al., J. Exp. Med. 192:1501-1508 (2000); cited from earlier work
T2 sequence (P51677 1-355): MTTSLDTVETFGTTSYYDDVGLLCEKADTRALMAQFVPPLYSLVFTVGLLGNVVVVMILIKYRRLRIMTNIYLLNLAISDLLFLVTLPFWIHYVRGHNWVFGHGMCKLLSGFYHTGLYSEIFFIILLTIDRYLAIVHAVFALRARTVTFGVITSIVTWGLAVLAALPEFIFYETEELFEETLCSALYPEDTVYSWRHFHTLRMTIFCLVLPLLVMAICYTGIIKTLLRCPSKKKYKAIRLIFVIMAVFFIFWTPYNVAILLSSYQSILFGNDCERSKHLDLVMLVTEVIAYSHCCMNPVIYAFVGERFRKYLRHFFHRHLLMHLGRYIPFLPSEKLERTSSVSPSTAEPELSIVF

Sequence of CCR5 (P51681 whole entry, species assumed): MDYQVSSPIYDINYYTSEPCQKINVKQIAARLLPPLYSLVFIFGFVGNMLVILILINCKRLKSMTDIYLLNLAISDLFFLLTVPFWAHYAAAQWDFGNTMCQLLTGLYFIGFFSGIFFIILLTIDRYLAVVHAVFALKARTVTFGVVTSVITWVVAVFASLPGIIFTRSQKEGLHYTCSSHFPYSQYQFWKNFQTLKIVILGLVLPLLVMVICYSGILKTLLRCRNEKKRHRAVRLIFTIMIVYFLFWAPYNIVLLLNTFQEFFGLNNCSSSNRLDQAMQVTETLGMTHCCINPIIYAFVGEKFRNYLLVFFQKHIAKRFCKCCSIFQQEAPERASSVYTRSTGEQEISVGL

B1: Ckb1(G28-N93): Ckb1 polypeptide, residues G28-N93, not fused (protein)
chain: GPYHPSECCFTYTTYKIPRQRIMDYYETNSQCSKPGIVFITKRGHSVCTNPSDKWVQDYIKDMKEN
release of IL-1β [1]: induced release | release of IL-6 [1]: induced release | release of TNF-alpha [1]: induced release

B2: IFN-g: IFN family ligand; positive control known to activate Jurkat T cells and U937 cells (protein, UniProt P01579 24-161, looked up)
Interferon gamma: QDPYVKEAENLKKYFNAGHSDVADNGTLFLGILKNWKEESDRKIMQSQIVSFYFKLFKNFKDDQSIQKSVETIKEDMNVKFFNSNKKKRDDFEKLTNYSVTDLNVQRKAIHELIQVMAELSPAAKTGKRKRSQMLFRG
induction (SEAP reporter activity) [2]: Over 30 fold | induction (SEAP reporter activity) [3]: Over 30 fold

B3: Ckb1: human chemokine beta 1; mature form of 74 amino acids, amino acids 1-74 of SEQ ID NO:2 (protein, listed as Homo Sapiens)
chain: MKISVAAIPFFLLITIALGTKTESSSRGPYHPSECCFTYTTYKIPRQRIMDYYETNSQCSKPGIVFITKRGHSV
activation of monocytes [4]: weak activator | agonism / activation of CCR1 [5]: activates CCR1 at high (supraphysiological) concentrations

B4: Ckb1 [9-74]: N-terminal deletion variant of Ckb1 consisting of amino acids 9-74 of SEQ ID NO:2 (Detheux et al.) (protein, listed as Homo Sapiens)
chain: PFFLLITIALGTKTESSSRGPYHPSECCFTYTTYKIPRQRIMDYYETNSQCSKPGIVFITKRGHSV
agonism of CCR5 [6]: potent agonist | agonism / activation of CCR1 [5]: potent agonist | agonism of CCR3 [7]: potent agonist
